Paper PMC4164784, “4E-BPs require non-canonical 4E-binding motifs and a lateral surface of eIF4E to repress translation” (Nature Communications, 2014)
“Also recorded” adds a separate entry of the source.

T1: SHN-eIF4E (full length, WT) (Drosophila melanogaster, UniProt P48598-2 1-248)
T1 construct: eIF4E, Drosophila melanogaster; also called SHN-tagged eIF4E; SNH-tagged eIF4E; not shown: Strep-NusA-His (SHN), N-terminal, kept
T1 sequence (looked up): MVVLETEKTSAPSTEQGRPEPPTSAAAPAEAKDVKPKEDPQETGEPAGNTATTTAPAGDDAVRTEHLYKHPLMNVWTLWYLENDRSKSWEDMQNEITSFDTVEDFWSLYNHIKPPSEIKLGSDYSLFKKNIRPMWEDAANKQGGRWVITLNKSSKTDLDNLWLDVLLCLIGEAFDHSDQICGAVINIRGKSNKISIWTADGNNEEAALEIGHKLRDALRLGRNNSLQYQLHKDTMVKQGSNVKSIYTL

T2: eIF4E–eIF4G complex (eIF4E WT; eIF4G residues 578–650) (Drosophila melanogaster, UniProt P48598)
T2 construct: full-length eIF4E (WT or the II-AA mutant) containing an N-terminal SNH-tag was coexpressed; made in house; host or cells: E. coli BL21 Star (DE3), coexpression
T2 sequence (P48598 1-248 isoform P48598-2): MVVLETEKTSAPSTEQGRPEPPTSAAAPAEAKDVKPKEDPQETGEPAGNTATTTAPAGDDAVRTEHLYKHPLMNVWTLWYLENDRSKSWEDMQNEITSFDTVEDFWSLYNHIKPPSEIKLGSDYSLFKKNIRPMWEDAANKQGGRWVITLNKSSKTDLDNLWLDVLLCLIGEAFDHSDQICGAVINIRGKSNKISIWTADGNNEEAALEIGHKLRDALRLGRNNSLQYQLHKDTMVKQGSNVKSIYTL


Legend:
[1] = target: T1, SHN-eIF4E (full length, WT); test: pull-down; preassembled complexes of SHN-eIF4E (WT or II-AA) with GST-eIF4G, GST-CUP, GST-Thor or GST-4E-T (coexpressed, purified on glutathione agarose) recovered on Strep-Tactin beads; conditions: both partners purified
[2] = target: T2, eIF4E–eIF4G complex (eIF4E WT; eIF4G residues 578–650); test: Competition assay, displacement of GST-eIF4G from preassembled eIF4E (WT)–eIF4G complexes; assay type: biochemical; conditions: Fig. 5a,c; fivefold molar excess of MBP-tagged competitor, 30 min at 4 °C, m7GTP or Strep-Tactin pull down
Experimental: For the competition assays shown in Figs 5a,c and 6a,b, complexes containing SHN- or MBP-tagged eIF4E (WT or II-AA mutant) bound to GST-eIF4G (residues 578–650), GST-Thor (full length), GST-4E-T (residues 1–58) or GST-CUP (311–440) were obtained by coexpressing the corresponding proteins in E. coli BL21 (DE3) STAR cells (30 ml culture). The cells were resuspended in lysis buffer (5 ml) that was supplemented with EDTA-free protease inhibitor (Roche) and 1 mg ml^−1 lysozyme and lysed by sonication. The cleared lysates were incubated with 400 μl of Protino Glutathione Agarose 4B (Macherey-Nagel) for 1 h. The beads were washed three times with lysis buffer, and the proteins were eluted after 10 min of incubation with lysis buffer containing 25 mM L-glutathione. The protein complexes were stored at −20 °C or used in competition assays.
The purified recombinant complexes were mixed with excess amounts of the indicated purified competitor proteins (Fig. 5c) or with bacterial lysates expressing the competitor proteins (Figs 5a and 6) and incubated for 30 min at 4 °C. After incubation, 20 μl of immobilized γ-Aminophenyl-m^7GTP or Strep-Tactin Sepharose (IBA), were added to the samples and incubated for another 40 min at 4 °C. The beads were washed three times with lysis buffer and eluted with lysis buffer containing 2.5 mM desthiobiotin (Strep-Tactin Sepharose) or with 20 μl of SDS–PAGE loading buffer (Aminophenyl-m^7GTP beads). The proteins were analyzed by 10–15% SDS–PAGE followed by staining with Coomassie blue staining. […]

[3] = system: endogenous eIF4E; test: Coimmunoprecipitation / m7GTP pull-down with endogenous eIF4E in S2 cell lysates; assay type: cell-based, Drosophila melanogaster; conditions: western blot
Experimental: (§1) The coimmunoprecipitations assays were performed as previously described. For the pull downs using m^7GTP beads, 25 μl of immobilized γ-aminophenyl-m^7GTP (C10-spacer—Jena Bioscience) beads was added to the cell lysates and the mixtures were rotated for 1 h at 4 °C. The beads were washed three times with NET buffer (50 mM Tris (pH 7.4), 150 mM NaCl, 1 mM EDTA and 0.1% Triton X-100). The bound proteins were eluted with 2 × SDS–polyacrylamide gel electrophoresis (SDS–PAGE) sample buffer and analyzed by western blotting (WB). All of the WB experiments were developed with the ECL western blotting detection system (GE Healthcare) as recommended by the manufacturer. The antibodies used in this study are listed in Supplementary Table 2.
Thor and 4E-T) or HA-eIF4G and endogenous eIF4E in S2 cell lysates. The proteins were immunoprecipitated using a polyclonal anti-eIF4E antibody (α-4E). The pre-immune (Pre-I) serum and an HA-tagged version of MBP served as negative controls. The inputs (1%) and immunoprecipitates (10%) were analyzed by western blotting using anti-HA and anti-eIF4E antibodies. (b,c) The interaction of HA-tagged full length 4E-BPs (CUP, Thor and 4E-T) and eIF4G with endogenous eIF4E was analyzed by coimmunoprecipitation using anti-HA antibodies (b) or by pull-down using m7GTP-Sepharose beads (c). HA-MBP served as a negative control. The inputs (10%) and immunoprecipitates (30%) were analyzed by western blotting using anti-HA and anti-eIF4E antibodies. (d) Western blot showing the interaction of HA-Thor (full-length either wild-type or mutants) with endogenous eIF4E in S2 cells. The proteins were immunoprecipitated using anti-HA antibodies and analyzed as described in (b,c). (e) Western blot showing the interaction of HA-4E-T (residues 1–511, wild-type or mutants) with endogenous eIF4E. The proteins were immunoprecipitated using anti-HA antibodies and analyzed as described in (b,c). The size markers (kDa) are shown to the right of each panel. Mutants are described in Supplementary Table 1.

[4] = system: eIF4E (full length, WT); test: GST/MBP pull-down of full-length WT eIF4E, coexpressed in E. coli; assay type: binding, Drosophila melanogaster; conditions: recombinant CUP (311–440), Thor (full length), 4E-T (1–58) or eIF4G (578–650), WT or mutant, SDS–PAGE
Experimental: (§2) For the pull-down assays shown in Fig. 3 and Supplementary Fig. 6a, the full-length His6- or SHN-tagged eIF4E (WT or II-AA mutant) was coexpressed with GST or MBP-tagged protein fragments, including CUP (residues 311–440), Thor (full length), 4E-T (residues 1–58) or eIF4G (residues 578–650) in E. coli BL21 (DE3) STAR cells in autoinducing medium[44] overnight at 20 °C. The cells were resuspended in lysis buffer (20 mM Tris–HCl (pH 7.5), 100 mM NaCl, 1 mM DTT) supplemented with EDTA-free protease inhibitor (Roche) and lysed by sonication. The cleared lysates were incubated for 1 h with 20 μl of Protino Glutathione Agarose 4B beads (Macherey-Nagel) or amylose resin (New England Biolabs). The beads were washed three times with lysis buffer, and the bound proteins were eluted with lysis buffer containing 25 mM L-glutathione or 25 mM maltose for 15 min. The proteins were analyzed by 10–15% SDS–PAGE followed by Coomassie blue staining.

[5] = system: firefly luciferase (F-Luc) reporter in S2 cells; test: Translation repression assay, F-Luc reporter in S2 cells; assay type: cell-based, Drosophila melanogaster; conditions: overexpression, C.I. and E.I., unpublished results
Experimental: S2 cells were transfected in 6-well plates using Effectene transfection reagent (Qiagen) according to the manufacturers protocol. The transfection mixtures contained: 0.1 μg of F-Luc reporter plasmid (F-Luc-V5), 0.3 μg of control RNA reporter, and increasing amounts of plasmids expressing HA-CUP (fragment 1–402; 0.05–0.2 μg) and HA-Thor (full length, 0.1–0.5 μg). The plasmids expressing the corresponding mutants or the HA peptide control were transfected at the highest concentration. In all the experiments, the cells were collected three days after transfection. The F-Luc activity was measured using the Dual-Luciferase reporter assay system (Promega). The northern blotting was performed as previously described. The F-Luc mRNA levels were determined by northern blotting and were normalized to those of the control RNA. The normalized F-Luc mRNA levels were then used to normalize the F-Luc activity, to obtain translation efficiencies.

[6] = system: eIF4E II-AA mutant (full length); test: GST/MBP pull-down of full-length eIF4E II-AA mutant, coexpressed in E. coli; assay type: binding, Drosophila melanogaster; conditions: recombinant CUP (311–440), Thor (full length), 4E-T (1–58) or eIF4G (578–650), WT or mutant, SDS–PAGE
Experimental: as §2

[7] = system: endogenous eIF4E and HA-tagged 4E-BPs in S2 cells; test: Immunofluorescence localization in S2 cells; assay type: cell-based, Drosophila melanogaster
Experimental: S2 cells expressing HA-tagged versions of CUP, Thor and 4E-T or the indicated mutants were treated with Leptomycin B (100 nM; Sigma) or methanol as a control for 12 h. After the LMB treatment, the cells were allowed to adhere to poly-D-lysine–coated coverslips for 15 min and were fixed with 2% paraformaldehyde for 10 min. The cells were then permeabilized with 0.1% Triton X-100 in PBS (10 min) and stained with affinity-purified monoclonal anti-HA (Covance 1:1,000) and polyclonal anti-eIF4E (1:2,000) antibodies in PBS containing 1% BSA for 1 h. Alexa Fluor 594-labeled goat anti-rabbit and 488-labeled anti-mouse antibodies (Invitrogen) were used at dilutions of 1:1,000 and 1:2,000, respectively. The cells were mounted using Fluoromount-G (Southern Biotech). The images were acquired at room temperature using a confocal microscope (TCS SP2; Leica) that was fitted with a Plan-Apochromat × 100 NA 1.40 oil immersion objective and a series of three photomultipliers (Hamamatsu Photonics) controlled with the Leica confocal software (version 2.61). The images were prepared using Photoshop (Adobe). […]
Thor) independent experiments. […] Confocal fluorescent […]
micrographs of fixed S2 cells expressing HA-4E-T and GFP-Tral. The localization of HA-4E-T was determined by indirect immunofluorescence using an anti-HA antibody. The merged pictures show the HA signal in red and the GFP-Tral signal in green. Bar: 5 μm.

[8] = system: eIF4E II-AA (lateral surface mutant); test: Coimmunoprecipitation with HA-eIF4E II-AA in S2 cells; assay type: cell-based, Drosophila melanogaster; conditions: HA-eIF4E II-AA vs WT, western blot
Experimental: as §1

Molecule	binding result [1]	competition with eIF4G for eIF4E WT (in words) [2]	interaction with endogenous eIF4E (in words) [3]	binding to WT eIF4E (in words) [4]	effect on mRNA upon overexpression (in words) [5]	binding to eIF4E II-AA mutant (in words) [6]	nuclear accumulation of endogenous eIF4E upon LMB (in words) ([7]; S2 cells expressing 4E-BP or mutant, LMB 100 nM, 12 h)	localization of endogenous eIF4E (in words) ([7]; S2 cells overexpressing 4E-BP or mutant, −LMB)	nuclear accumulation of 4E-BP upon LMB (in words) ([7]; S2 cells, LMB 100 nM, 12 h)	localization of the 4E-BP (in words) ([7]; S2 cells, steady-state, −LMB)	association with eIF4E II-AA (in words) [8]
GST-Thor (full length) (natural protein, Drosophila melanogaster, UniProt Q9XZ56 1-117, looked up, Thor, Drosophila melanogaster; source: E. coli BL21 (DE3) STAR, coexpressed with SHN-eIF4E, complex purified on glutathione agarose) MSASPTARQAITQALPMITRKVVISDPIQMPEVYSSTPGGTLYSTTPGGTKLIYERAFMKNLRGSPLSQTPPSNVPSCLLRGTPRTPFRKCVPVPTELIKQTKSLKIEDQEQFQLDL	binds	–	–	–	–	–	–	–	–	–	–
Thor ΔNC: Thor ∆76–84, non-canonical motif deleted (protein, left off: HA (λN-HA, from the vector pAc5.1-λN-HA), end not stated, kept | V5, end not stated, state not stated, Thor ∆76–84, non-canonical motif deleted) MSASPTARQAITQALPMITRKVVISDPIQMPEVYSSTPGGTLYSTTPGGTKLIYERAFMKNLRGSPLSQTPPSNVRTPFRKCVPVPTELIKQTKSLKIEDQEQFQLDL	–	abolish its ability to compete with eIF4G	abolished the interaction with eIF4E	The results obtained for the Thor NC* and C+NC* mutants were confirmed; also recorded: interacted with eIF4E	–	–	–	–	–	–	–
4E-T: Dm 4E-transporter (1–1010), Q8IH18; residues 1–58 in pull-down assays (protein, left off: GFP, end not stated, kept, Dm 4E-transporter (1–1010), Q8IH18; residues 1–58 in pull-down assays) MDTSKISARYSKVDLLALRYEGKSRQRPQCSTRLELQTLGFWKINLNTAALTVSSAYSNQNKNRLSPEADNSSLICSNSSSISSRRAMRNRERANNYYQRFVPTDSLLISGEDKDKDALSHGQPYKLNIIDHRSISSSHLMPAFAKRRFVISKGSNSEESNEGINTCASKGKAASSPSRKGSELDTAETCLNFVQPDHDQCMSSSPTFSTSRQERRIGSGRLLPRSDNWDYKNEKTVEASIENEKETSPNGSGSTSSLNQHNQSQHRSRTFSGRLVERVPEVTDRRFQYDSKKSFDRQGINNRRISGKEPFSTQSRSKRGNSYLIHEEPEWFSAGPKSQLETIDLHGFEDLEKNEERSVTEDKNNQIQQLDKNLDAQASKDEASMRNSNDSLNFREVIPSDEKKHTDENVVTSIQNSTDLGHPNKNKPIQMQPSQNPESEFNFDAFLNMHPLDNSVLSNDETGKSDSKGTSRFSRWFRQKEAANNNEFPGFRESHAQEKRGIPSVKDLEAQMIKVDMRTDLINPIAGSLCQTVQMEKPIARDTEAFKKLLQQLGSQARQHHPCNDDCRTINLSNIANHVHLESKLHQKINDGHLQQPELSVNVPTMPTSSHVFLQKRLEIQHLIQRLHCGDVSHDFLEKELDNPSTPAATKDVIATVLNEYSHSKRNPVVTGDPNIFTQQSFLQPQSVHQHYSQELHSQNTANHTINQLISHGNSPTPLAFTPTSVLRKMTADKDTQSPSTYCQNPQYHVHQQNAKQVGTRENVLEPQLTATMAVQPRMILGGGNFAIGQNNQHLSPNMSQSRNQQVLKWTSGNMQMVHGKTFGRPILKGGLNSMPHSNSALPFTAHKIEMQPIHQPHLQQQQHRFKAVQSVESNLNTESVHQNITSPVGWHQLYMQHQQQHHHTRQQLSQRVIYGEMHRQSNPQMSPPVPGFSDSSDSGNVIKANSLTSPSYQRDERISSPTNQLAQWFSPELLAKASAGKLPLLNVNQALSLEEFERSIQHSSGVVHN	–	–	interacted with endogenous eIF4E	–	caused mRNA degradation when overexpressed	pulled down comparable amounts of WT and mutant eIF4E	endogenous eIF4E accumulated in the nucleus	detected in P-bodies	nuclear accumulation	localizes to P-bodies; also recorded: accumulated in cytoplasmic foci, which correspond to P-bodies	disrupted the association
